Source: patent US10100114B2, “Antibodies specific for TROP-2 and their uses” (RINAT NEUROSCIENCE CORP., priority 2011, dated 2018)
Changes are numbered by the printed parent chain. Names may count otherwise. Like-named read-outs stand apart in the source and are kept apart here.

T1: human Trop-2-hFc (Homo sapiens, UniProt P09758)
T1 construct: Monomeric Trop-2 extracellular domain prepared from papain digestion of Trop-2-Fc fusion protein
T1 sequence (P09758 27-274 limits assumed): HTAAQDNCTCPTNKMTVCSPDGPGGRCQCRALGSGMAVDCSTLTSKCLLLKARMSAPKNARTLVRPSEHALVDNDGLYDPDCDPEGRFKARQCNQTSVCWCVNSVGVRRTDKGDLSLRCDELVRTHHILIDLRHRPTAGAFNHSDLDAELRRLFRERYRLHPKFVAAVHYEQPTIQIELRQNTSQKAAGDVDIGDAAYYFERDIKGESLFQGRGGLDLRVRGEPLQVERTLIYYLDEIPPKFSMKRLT

T2: human Trop2-ECD (Homo sapiens, UniProt P09758)
T2 sequence (P09758 27-274 limits assumed): T1 sequence (P09758 27-274 limits assumed)

T3: Human Trop-2-mFc (Homo sapiens, UniProt P09758)
T3 construct: Monomeric Trop-2 extracellular domain prepared from papain digestion of Trop-2-Fc fusion protein
T3 sequence (P09758 27-274 limits assumed): T1 sequence (P09758 27-274 limits assumed)

B1: h7E6SVG-LCQ04/K222R-vc0101: h7E6SVG K222R with light chain LCQ04 tag conjugated with AcLys-vc-PABC-0101 (conjugate)
VH: QVQLQESGPGLVKPSETLSLTCTVSGGSISSYGVHWIRQPPGKGLEWIGVIWTSGVTDYNSALMGRVTISVDTSKNQFSLKLSSVTAADTAVYYCARDGDYDRYTMDYWGQGTLVTVSS
VL: DIVMTQSPDSLAVSLGERATINCRASKSVSTSGYSYMHWYQQKPGQPPKLLIYLASNLESGVPDRFSGSGSGTDFTLTISSLQAEDVAVYYCQHSRELPYTFGQGTKLEIK
B2: h7E6_L: humanized anti-Trop-2 antibody comprising SEQ ID NOs: 4 and 6 (antibody, V domains shown)
VH: B1 VH with S54G, V56S, G65S
VL: B1 VL with G33L
B3: h7E6: humanized anti-Trop-2 antibody, VL SEQ ID NO: 3, VH SEQ ID NO: 4 (antibody, V domains shown)
VH: B1 VH with S54G, V56S, G65S
VL: B1 VL
B4: h7E6-SVGN-TG1-vcMMAD: h7E6_SVGN hIgG1 with TG1 tag conjugated with AcLys-vcMMAD (conjugate)
VH: B1 VH
VL: B1 VL with G33N
B5: h7E6_SVG: humanized anti-Trop-2 antibody, VL SEQ ID NO: 3, VH SEQ ID NO: 5 (antibody, V domains shown)
VH: B1 VH
VL: B1 VL
B6: h7E6SVG-LCQ03/K222R-vc0101: h7E6SVG K222R with light chain LCQ03 tag (SEQ ID NO: 78) conjugated with AcLys-vc-PABC-0101 (conjugate)
VH: B1 VH
VL: B1 VL
B7: h7E6_SVGL: humanized anti-Trop-2 antibody, VL SEQ ID NO: 6, VH SEQ ID NO: 5 (antibody, V domains shown)
VH: B1 VH
VL: B1 VL with G33L
B8: h6G11: humanized anti-Trop-2 antibody, VL SEQ ID NO: 10, VH SEQ ID NO: 11 (antibody, V domains shown)
VH: QVQLVQSGAEVKKPGASVKVSCKASGYTFTSYWINWVRQAPGQGLEWMGNIYPSDSYSNYNQKFKDRVTMTRDTSTSTVYMELSSLRSEDTAVYYCARGSSFDYWGQGTLVTVSS
VL: EIVLTQSPATLSLSPGERATLSCRASQTIGTSIHWYQQKPGQAPRLLIYYASESISGIPARFSGSGSGTDFTLTISSLEPEDFAVYYCQQSNSWPFTFGQGTKLEIK
B9: h6G11_FKG_SF: humanized anti-Trop-2 antibody, VL SEQ ID NO: 12, VH SEQ ID NO: 13 (antibody, V domains shown)
VH: B8 VH with Y52F, Q62K, S101G
VL: B8 VL with Q89S, N92F

Experiments:
[1] = tested on: SW620 cells (Trop-2 non-expressing); assay: Cytotoxicity of ADCs (CellTiter-Glo), SW620; assay type: cell-based
Description: Target expressing (A431, BxPC3, CAPAN-2 and Colo205) or non-expressing (SW620) cells were seeded on white walled clear bottom plates at 2000 cells/well for 24 hours before treatment. Cells were treated with 4 fold serially diluted antibody-drug conjugates in triplicates. Cell viability was determined by CellTiter-Glo® Luminescent Cell Viability Assay 96 (Promega, Madison Wis.) 96 hours after treatment. Relative cell viability was determined as percentage of untreated control. IC50 was calculated by Prism software.
2-methylalanyl-N-[(3R,4S,5S)-3-methoxy-1-{(2S)-2-[(1R,2R)-1-methoxy-2-methyl-3-oxo-3-{[(1S)-2-phenyl-1-(1,3-thiazol-2-yl)ethyl]amino}propyl]pyrrolidin-1-yl}-5-methyl-1-oxoheptan-4-yl]-N-methyl-L-valinamide is a novel auristatin, as described in U.S. Application Nos. 61/561,255 and 61/676,423. Method of conjugating Trop-2 antibodies using transglutaminase tags is described in Example 9. Target expressing or non-expressing (SW620) cells were seeded on white walled clear bottom plates at 2000 (A431, BxPC3, NCI-H292, NCI-H1650, MDA-MB-468 and SW620), 2500 (Calu-3) or 3000 (OVCAR3 and SKBR3) cells per well for 24 hours before treatment. Cells were treated with 4 fold serially diluted antibody-drug conjugates in triplicates. Cell viability was determined by CellTiter-Glo® Luminescent Cell Viability Assay 96 (Promega, Madison, Wis.) 96 hours after treatment. Relative cell viability was determined as percentage of untreated control. IC50 was calculated by GraphPad Prism 5 software and expressed as concentration (nM) of total Ab.

BxPC3 xenograft = assay: In vivo efficacy of humanized Trop-2 ADCs, pancreatic tumor BxPC3 xenograft model; parameters: species or system CB17/SCID mice; settings: single dose, tail vein; FIGS. 9A-9C
Description: In vivo efficacy studies of Trop-2 ADCs were performed with target-expressing BxPC3 xenograft model. Two million BxPC3 pancreatic cancer cells were implanted subcutaneously into 5-8 weeks old CB17/SCID mice until the tumor sizes reached between 300-400 mm^3. […] Tumor volume was measured once a week by a Caliper device and calculated with the following formula: Tumor volume=(length×width^2)/2. Studies were terminated before their tumor volumes reached 2000 mm^3.

human Trop-2-hFc = target: T1, human Trop-2-hFc; assay: Biacore SPR affinity of chimeric and humanized 7E6 Fab, human Trop-2; assay type: binding; settings: recombinant Fab fragments injected over captured human Trop-2-hFc
From the text: (§1) The human Trop-2-hFc or cynomolgus monkey Trop-2-hFc proteins were captured on the CM5 EDA chip 37 sensor surface coupled with anti-human Fc.

[2] = tested on: cynomolgus monkey Trop-2-hFc; assay: Biacore SPR affinity of chimeric and humanized 7E6 Fab, cynomolgus Trop-2; assay type: binding; settings: recombinant Fab fragments injected over captured cynomolgus monkey Trop-2-hFc
From the text: as §1

SW620 (Trop-2 −) cells = assay: Flow cytometry binding, SW620 cells; assay type: cell-based; settings: 1 ug antibody
Description: For A431 cell staining, 200,000 cells were incubated with 0.5 ug antibody in 100 uL binding buffer (PBS (Phosphate Buffered Saline)+0.5% BSA (Bovine Serum Albumin)), followed by incubation with Dylight488-conjugated goat anti-human (Fab′)2-specific secondary antibody from Jackson immunoresearch Laboratories (West Grove, Pa.). For Colo205 and SW620 cells, 300,000 cells were used with 1 ug of primary antibody, followed by AlexaFluor 647 anti-human (Fab′)2-specific secondary antibody from Jackson immunoresearch Laboratories (West Grove, Pa.).
Similar to Example 7a), binding of chimeric mouse and humanized anti-Trop-2 6G11 antibodies (expressed in human IgG1 subtype) were assessed on Trop-2 expressing (A431 and Colo205) and non-expressing (SW620) cells by flow cytometry. 300,000 cells were used with 1 ug of primary antibody, followed by AlexaFluor 647 anti-human (Fab′)2-specific secondary antibody.

human Trop2-ECD = target: T2, human Trop2-ECD; assay: Proteon XPR36 SPR of Fab/human Trop2-ECD interactions; assay type: binding; settings: amine-coupled Fab; monovalent human Trop2-ECD 6, 30 and 150 nM; 25° C., pH 7.4
Description: Analysis of Fab/human Trop2-ECD (Extracellular Domain) interactions was performed using a Bio-Rad Proteon XPR36 Surface Plasmon Resonance (SPR) biosensor (Bio-Rad, Hercules, Calif.) equipped with a GLC sensor chip. The assay temperature was 25° C., and the assay buffer was 10 mM Sodium Phosphate, 150 mM NaCl, 0.05% Tween-20, pH 7.4. An array of amine-coupled Fabs was prepared using the methodology described in Abdiche et al. (Anal. Biochem., 411: 139-151 (2011)). In each analysis cycle, monovalent human Trop2-ECD antigen was flowed at 30 μL/min over the immobilized Fabs for 3 minutes followed by a buffer wash for 15 minutes to monitor dissociation of the Fab/Trop2 complex. The sensor surface was regenerated between analysis cycles, using three 18-second injections of a 2:1 mixture (by volume) of Pierce IgG Elution buffer:4 M NaCl (Pierce, Rockford, Ill.). Binding and regeneration cycles were repeated at human Trop2-ECD concentrations of 6, 30 and 150 nM. The resulting data were fit to a 1:1 Langmuir binding model using the Proteon evaluation software.

Colo205 xenograft = assay: In vivo efficacy of Trop-2 ADCs, colorectal tumor Colo205 xenograft model; parameters: species or system nu/nu mice; settings: single dose of 6 mg/kg, tail vein; FIG. 10
Description: In vivo efficacy study of Trop-2 ADCs was performed with target-expressing colo205 xenograft model. Three millions of colo205 colon cancer cells were implanted subcutaneously into 5-8 weeks old nu/nu mice until the tumor sizes reached ˜300 mm^3. […] Tumor volume is measured once a week by a Caliper device and calculated with the following formula: Tumor volume=(length×width^2)/2. Studies were terminated before their tumor volumes reached 2000 mm^3.

Human Trop-2-mFc = target: T3, Human Trop-2-mFc; assay: Biacore SPR affinity of humanized 6G11 Fab; assay type: binding; settings: Fab fragments injected over captured human Trop-2-mFc
Description: The affinities of humanized 6G11 antibodies were measured on a surface plasmon resonance Biacore™ 2000 biosensor equipped with a research-grade CM5 sensor chip (Biacore™ AB, Uppsala, Sweden—now GE Healthcare). Human Trop-2-mFc protein was captured on the CM5 chip coupled with anti-mouse Fc. Human 6G11_WT or Human 6G11_FKG_SF chimeric Fab fragments were injected as 3 fold dilution series.

[3] = Table 13, SW620, Trop2 expression −, 96 hours, concentration of total Ab

Molecule | ka (human Trop-2-hFc) [M⁻¹ s⁻¹] | kd (human Trop-2-hFc) [s⁻¹] | ka [2] [M⁻¹ s⁻¹] | kd [2] [s⁻¹] | % positive (SW620 (Trop-2 −) cells; Table 10, 300,000 cells) [%] | MFI (SW620 (Trop-2 −) cells; Table 10, 300,000 cells) | further results
B1 |  |  |  |  |  |  | IC50 [1, 3]: > 267 nM; tumor response, BxPC3 xenograft (BxPC3 xenograft): tumor regression
B2 | 130000 | 0.00015 | 126000 | 0.000335 | 2.5 | 158 | 
B3 | 139000 | 0.00294 | 144000 | 0.00635 | 2.1 | 143 | 
B4 |  |  |  |  |  |  | Ab-IC50 ([1]; Table 12, SW620 (Trop-2−), 96 hours after treatment): 10.410 µg/mL; IC50 ([1]; Table 12, SW620 (Trop-2−), 96 hours after treatment, read-out: Ab-IC50): 69.4 nM
B5 | 97600 | 0.000435 | 265000 | 0.00189 | 2.4 | 139 | ka (human Trop2-ECD): 170000 M⁻¹ s⁻¹; kd (human Trop2-ECD): 0.00069 s⁻¹
B6 |  |  |  |  |  |  | IC50 [1, 3]: > 267 nM; tumor response, Colo205 xenograft (Colo205 xenograft): tumor regression
B7 | 131000 | 3.27e-05 | 130000 | 7.42e-05 | 2.6 | 135 | 
B8 |  |  |  |  |  |  | ka (Human Trop-2-mFc): 360000 M⁻¹ s⁻¹; kd (Human Trop-2-mFc): 0.0096 s⁻¹; % positive (SW620 (Trop-2 −) cells; Table 11, 300,000 cells): 3.9%; MFI (SW620 (Trop-2 −) cells; Table 11, 300,000 cells): 154
B9 |  |  |  |  |  |  | ka (Human Trop-2-mFc): 640000 M⁻¹ s⁻¹; kd (Human Trop-2-mFc): 0.00038 s⁻¹; % positive (SW620 (Trop-2 −) cells; Table 11, 300,000 cells): 2.5%; MFI (SW620 (Trop-2 −) cells; Table 11, 300,000 cells): 157
